Laboratory results taken from paper PMC9159911.

Tested on: SmpB (small protein B) (Aeromonas veronii)
Assay: MST
Conditions: […], pH 7.4), temperature not stated, binding buffer not stated

PompA C52AT (native ompA promoter fragment)
Kd: 0.93 µM

PompA T52GC (CAT at +52 to TGC)
Kd: 126 µM
